Reference: patent US20260345776 (published 2026)

Key:
FOLR1 [1] = target: T1, FOLR1 (human, UniProt P15328); assay: BLI, 25C
FOLR1 [2] = target: T1, FOLR1; assay: FACS, FOLR+ KB cells

T1 sequence (P15328 25-234): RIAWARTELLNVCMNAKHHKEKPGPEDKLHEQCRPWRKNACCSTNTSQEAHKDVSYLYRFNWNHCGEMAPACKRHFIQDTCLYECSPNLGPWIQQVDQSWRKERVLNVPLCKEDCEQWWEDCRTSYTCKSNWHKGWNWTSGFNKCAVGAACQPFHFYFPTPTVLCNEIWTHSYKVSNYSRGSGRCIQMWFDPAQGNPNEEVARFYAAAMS

- Kd (FOLR1 [1]): 0.345 nM
- Kd (FOLR1 [2]): 16.1 nM
B1: b-SpyTag003(D2)-K(folate) (peptide)
chain: RGVPHIVMVDAYKRYKG
modifications: biotinylated; two D-arginine substitutions; additional C-terminal Lys conjugated to folate (folate is the FOLR1-binding moiety)
